These results are taken from US20130217572A1, “SPECIFIC DELIVERY OF AGROCHEMICALS” (VRIJE UNIVERSITEIT BRUSSEL, priority 2010, published 2013).

Experiment [1] deals with T1, potato lectin (Sigma) (potato, UniProt Q9S8M0 23-323).
T1 construct: Bought glycoprotein, coated on ELISA plates
T1 sequence (looked up): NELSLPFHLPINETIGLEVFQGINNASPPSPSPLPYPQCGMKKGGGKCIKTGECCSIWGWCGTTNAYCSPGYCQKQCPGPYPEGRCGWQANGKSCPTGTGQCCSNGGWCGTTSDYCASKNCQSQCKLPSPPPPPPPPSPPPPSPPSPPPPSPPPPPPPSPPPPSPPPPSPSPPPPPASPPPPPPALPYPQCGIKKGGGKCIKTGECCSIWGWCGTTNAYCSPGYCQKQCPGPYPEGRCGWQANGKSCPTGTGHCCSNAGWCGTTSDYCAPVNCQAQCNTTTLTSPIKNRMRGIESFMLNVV
The experiment can be described thus: VHH-coupled Uvitex microcapsules retained on potato lectin-coated wells; 4% surface coverage.

Experiment [2] has as its target T1, potato lectin (Sigma). The experiment can be described thus: VHH-coupled Uvitex microcapsules retained on potato lectin-coated wells; 20% surface coverage.
The target in experiment [3] is T1, potato lectin (Sigma). The experiment can be described thus: VHH-coupled Uvitex microcapsules retained on potato lectin-coated wells; 100% surface coverage.
Experiment [4] concerns the target T1, potato lectin (Sigma). The experiment can be described thus: VHH-coupled Uvitex OB microcapsules retained on potato lectin-coated wells; 4% surface coverage.
In experiment [5] the target is T1, potato lectin (Sigma). Briefly: VHH-coupled Uvitex OB microcapsules retained on potato lectin-coated wells; 20% surface coverage.
In experiment [6] the target is T1, potato lectin (Sigma). Briefly: VHH-coupled Uvitex OB microcapsules retained on potato lectin-coated wells; 100% surface coverage.
For experiment [7], the target named is T1, potato lectin (Sigma). The experiment can be described thus: VHH-coupled lambda-cyhalothrin microcapsules retained on potato lectin-coated wells; 4% surface coverage.
Experiment [8] concerns the target T1, potato lectin (Sigma). The experiment can be described thus: VHH-coupled lambda-cyhalothrin microcapsules retained on potato lectin-coated wells; 20% surface coverage.
Experiment [9] addresses T1, potato lectin (Sigma). The experiment can be described thus: VHH-coupled lambda-cyhalothrin microcapsules retained on potato lectin-coated wells; 100% surface coverage.
The target in experiment [10] is unrelated antigens. The experiment can be described thus: VHH-coupled Uvitex microcapsules retained on wells coated with unrelated antigen; 4% surface coverage.
Experiment [11] addresses unrelated antigens. Briefly: VHH-coupled Uvitex microcapsules retained on wells coated with unrelated antigen; 20% surface coverage.
Experiment [12] deals with unrelated antigens. Briefly: VHH-coupled Uvitex microcapsules retained on wells coated with unrelated antigen; 100% surface coverage.
Experiment [13] deals with T1, potato lectin (Sigma). The experiment can be described thus: VHH-coupled Uvitex microcapsules on potato lectin-coated wells; 25-fold less microcapsules applied. The method, then:
An ELISA-like assay was performed using high bind half area microplates (Greiner Bio-One) coated with 5 μg/well potato lectin. Control wells included blank wells or wells coated with unrelated antigens. Plates were washed three times with PBS with 0.05%-TWEEN®-20 and blocked with 5% skimmed milk in PBS for 1 to 2 hours. VHH-coupled Uvitex-containing microcapsules were diluted to appropriate densities in 1% skimmed milk in PBS with 0.05%-TWEEN®-20. Five-fold serial dilution series were prepared and allowed to bind to the surface to compare binding of microcapsules coupled with monovalent or bivalent VHH. Microcapsules were added to the antigen-coated or control wells and allowed to bind for 1 hour. Unbound microcapsules were removed by washing five times with PBS with 0.05%-TWEEN®-20. The bottoms of ELISA plate wells were analyzed for bound microcapsules on a macrozoom microscope system (Nikon). Microcapsules were counted using Volocity image analysis software (Perkin Elmer). A DAPI filter was used to visualize Uvitex microcapsules.
The surface area of microcapsules with coupled bivalent VHH was 15-fold above the surface area of blank microcapsules applied at this microcapsule density while the surface area of microcapsules with monovalent VHH was only six-fold above the surface area of blank microcapsules applied at this microcapsule density. […]

On to unrelated VHH, for which the values for the surface area of bound microcapsules with potato lectin (Sigma) [1], with potato lectin (Sigma) [2] and with potato lectin (Sigma) [3] were 19.2, 43.5 and 142, respectively. For the same molecule, the area of bound microcapsules with potato lectin (Sigma) [4] came to 7.53; in the experiment with potato lectin (Sigma) [5], 35.4; with potato lectin (Sigma) [6], 16.7. Moreover, the figures for the counts of bound microcapsules (microcapsules) with potato lectin (Sigma) [7], with potato lectin (Sigma) [8] and with potato lectin (Sigma) [9] were 348, 709 and 828, respectively.

B1: Bivalent VHH 3E6 (VHH)
chain: QVQLQESGGGLVQPGGTLSLSCAASGFNVRWYGMGWFRQAPGKEREGVACISALQETTAYADSVKGRFTLSRDNPKNTLSLQMNNLQPEDTGVYYCATTDCDDSSRMTYTSYLGQGTQVTVSSGGGGSGGGSQVQLQESGGGLVQPGGTLSLSCAASGFNVRWYGMGWFRQAPGKEREGVACISALQETTAYADSVKGRFTLSRDNPKNTLSLQMNNLQPEDTGVYYCATTDCDDSSRMTYTSYLGQGTQVTVSSAAAEQKLISEEDLNGAAHHHHHH
notes: Built from the general description of the bivalent constructs (two VHH in tandem); Tested covalently coupled to Uvitex microcapsules
As to B1, the values for the surface area of bound microcapsules with unrelated antigens [10], with unrelated antigens [11] and in the experiment with unrelated antigens [12] were 15, 22.1 and 45.7, respectively. In addition, the “fold of surface area above blank microcapsules” value in the experiment with potato lectin (Sigma) [13] was 15 fold.
